Data set [1] in a line: LCMS, IgG1 BsAb co-expression; HCB (matuzumab) homodimer species.
For data set [2], the target named is matuzumab HC_7.8_A + matuzumab LC (IgG1). In words: LCMS, IgG1 BsAb co-expression in HEK293F.
Data set [3] can be described thus: LCMS, IgG1 BsAb co-expression; HCA (MetMAb) homodimer species.
For data set [4], the target named is matuzumab HC_7.8_A + matuzumab LC (IgG1). In words: LCMS, IgG1 BsAb co-expression; HCA/HCB heterodimer carrying two LC1.
Data set [5] has the same target. In words: LCMS, IgG1 BsAb co-expression; HCA/HCB heterodimer carrying two LC2.
Data set [6] concerns the target matuzumab HC_7.8.60_A + matuzumab LC (IgG1). The data set can be described thus: LCMS, IgG1 BsAb co-expression in HEK293F.
Data set [7] shares this target. The data set can be described thus: LCMS, IgG1 BsAb co-expression; HCA/HCB heterodimer carrying two LC1.
Data set [8] has the same target. The data set can be described thus: LCMS, IgG1 BsAb co-expression; HCA/HCB heterodimer carrying two LC2.
The target in data set [9] is matuzumab HC_20.8_B + matuzumab LC (IgG1). In words: LCMS, IgG1 BsAb co-expression in HEK293F.
The target in data set [10] is BHA10 HC_20.8_B + BHA10 LC (IgG1). In words: LCMS, IgG1 BsAb co-expression in HEK293F.
Data set [11] addresses matuzumab HC_20.8.34_B + matuzumab LC (IgG1). In words: LCMS, IgG1 BsAb co-expression in HEK293F.
Data set [12] deals with matuzumab HC_20.8.37_B + matuzumab LC (IgG1). In words: LCMS, IgG1 BsAb co-expression in HEK293F.
Data set [13] deals with BHA10 HC_20.8.37_B + BHA10 LC (IgG1). The data set can be described thus: LCMS, IgG1 BsAb co-expression in HEK293F.
Data set [14] addresses BHA10 HC_20.8.34_B + BHA10 LC (IgG1). The data set can be described thus: LCMS, IgG1 BsAb co-expression in HEK293F.
Data set [15] concerns the target matuzumab HC_20.8_B + matuzumab LC (IgG1). In words: LCMS, IgG1 BsAb co-expression; HCA/HCB heterodimer carrying two LC1.
Data set [16] concerns the target BHA10 HC_20.8_B + BHA10 LC (IgG1). Described as above.
Data set [17] concerns the target matuzumab HC_20.8.34_B + matuzumab LC (IgG1). The description is as above.
Data set [18] addresses matuzumab HC_20.8.37_B + matuzumab LC (IgG1). The description is as above.
Data set [19] concerns the target BHA10 HC_20.8.37_B + BHA10 LC (IgG1). The data set is described as above.
The target in data set [20] is BHA10 HC_20.8.34_B + BHA10 LC (IgG1). The data set is described as above.
Data set [21] has as its target matuzumab HC_20.8_B + matuzumab LC (IgG1). In words: LCMS, IgG1 BsAb co-expression; HCA/HCB heterodimer carrying two LC2.
The target of data set [22] is BHA10 HC_20.8_B + BHA10 LC (IgG1). The description is as above.
Data set [23] concerns the target matuzumab HC_20.8.34_B + matuzumab LC (IgG1). The data set is described as above.
Data set [24] concerns the target matuzumab HC_20.8.37_B + matuzumab LC (IgG1). Described as above.
Data set [25] has as its target BHA10 HC_20.8.37_B + BHA10 LC (IgG1). The description is as above.
The target in data set [26] is BHA10 HC_20.8.34_B + BHA10 LC (IgG1). The description is as above.

From patent publication US20180009908 come the findings set out here.

B1: matuzumab HC_7.8.60_A + matuzumab LC (IgG1) (protein)
chain 1: QVQLVQSGAEVKKPGASVKVSCKASGYTFTSHWMHWVRYAPGQGLEWIGEFNPSNGRTNYNEKFKSKATMTVDTSTNTAYMELSSLRSEDTAVYYCASRDYDYDGRYFDYWGRGTLVTVSSASTKGPSVFPLAPCSKSTSGGTAALGCLVKDYFPEPVTVSWNSGALTSGVHTFPAVLQSSGLYSLSSVVTVPSSSLGTQTYICNVNHKPSNTKVDKKVEPDSGDKTHTCPPCPAPELLGGPSVFLFPPKPKDTLMISRTPEVTCVVVDVSHEDPEVKFNWYVDGVEVHNAKTKPREEQYNSTYRVVSVLTVLHQDWLNGKEYKCKVSNKALPAPIEKTISKAKGQPREPQVYTLPPSREEMTDNQVSLTCLVKGFYPSDIAVEWESNGQPENNYKTTPPVLMSDGSFFLASKLTVDKSRWQQGNVFSCSVMHEALHNHYTQKSLSLSPGK
chain 2: DIQMTQSPSSLSASVGDRVTITCSASSSVTYMYWYQRKPGDAPKLLIYDTSNLASGVPSRFSGSGSGTDYTFTISSLQPEDIATYYCQQWSSHIFTFGQGTKVEIKRTVAAPSVFIFPPSKEQLKSGTASVVCLLNNFYPREAKVQWKVDNALQSGNSQESVTEQDSKDSTYSLSSTLTLSKADYEKHKVYACEVTHQGLSSPVTKSFNRGEC
Turning to B1, in data set [1], the % BB Homodimer (incorrect assembly) worked out at 0%.

B2: MetMAb HC_7.8_B + MetMAb LC (IgG1) (protein)
chain 1: EVQLVESGGGLVQPGGSLRLSCAASGYTFTSYWLHWVRKAPGKGLEWVGMIDPSNSDTRFNPEFKDRFTISADTSKNTAYLQMNSLRAEDTAVYYCATYRSYVTPLDYWGQGTLVTVSSASTKGPSVFPLAPSSKSTSGGTAALGCLVKDYFPEPVTVSWNSGALTSGVATGPAVLQSSGLYSLSSVVTVPSSSLGTQTYICNVNHKPSNTKVDKKVEPKSCDKTHTCPPCPAPELLGGPSVFLFPPKPKDTLMISRTPEVTCVVVDVSHEDPEVKFNWYVDGVEVHNAKTKPREEQYQSTYRVVSVLTVLHQDWLNGKEYKCKVSNKALPAPIEKTISKAKGQPREPQVYTLPPSREEMTKNQVSLVCLVKGFYPSDIAVEWESNGQPENNYKTTPPVLDSDGSFFLYSVLTVDKSRWQQGNVFSCSVMHEALHNHYTQKSLSLSPGK
chain 2: RIQMTQSPSSLSASVGDRVTITCKSSQSLLYTSSQKNYLAWYQDKPGKAPKLLIYWASTRESGVPSRFSGSGSGTDFTLTISSLQPEDFATYYCQQYYAYPWTFGQGTKVEIKGQPKAAPSVTLFPPSSEELQANKATLVCYISDFYPGAVTVAWKADSSPVKAGVETTTPSKQSNNKYAAWSYLSLTPEQWKSHRSYSCQVTHEGSTVEKTVAPTEC
B2: the % AB (LC1/LC2) (correct IgG BsAb assembly) in [2] was 100%. The protein also yielded a % AA Homodimer (incorrect assembly) in data set [3] of 0%. The % AB (2x LC1) (incorrect assembly) in [4] was 0%. The % AB (2x LC2) (incorrect assembly) in data set [5] was 0%.

B3: MetMAb HC_7.8.60_B + MetMAb LC (IgG1) (protein)
chain 1: EVQLVESGGGLVQPGGSLRLSCAASGYTFTSYWLHWVRKAPGKGLEWVGMIDPSNSDTRFNPEFKDRFTISADTSKNTAYLQMNSLRAEDTAVYYCATYRSYVTPLDYWGQGTLVTVSSASTKGPSVFPLAPSSKSTSGGTAALGCLVKDYFPEPVTVSWNSGALTSGVATGPAVLQSSGLYSLSSVVTVPSSSLGTQTYICNVNHKPSNTKVDKKVEPKSCDKTHTCPPCPAPELLGGPSVFLFPPKPKDTLMISRTPEVTCVVVDVSHEDPEVKFNWYVDGVEVHNAKTKPREEQYQSTYRVVSVLTVLHQDWLNGKEYKCKVSNKALPAPIEKTISKAKGQPRRPRVYTLPPSREEMTKNQVSLVCLVKGFYPSDIAVEWESNGQPENNYKTTPPVLDSDGSFFLYSVLTVDKSRWQQGNVFSCSVMHEALHNHYTQKSLSLSPGK
chain 2: RIQMTQSPSSLSASVGDRVTITCKSSQSLLYTSSQKNYLAWYQDKPGKAPKLLIYWASTRESGVPSRFSGSGSGTDFTLTISSLQPEDFATYYCQQYYAYPWTFGQGTKVEIKGQPKAAPSVTLFPPSSEELQANKATLVCYISDFYPGAVTVAWKADSSPVKAGVETTTPSKQSNNKYAAWSYLSLTPEQWKSHRSYSCQVTHEGSTVEKTVAPTEC
In the case of B3, the % AB (LC1/LC2) (correct IgG BsAb assembly) in data set [6] is 90.8%. For the same protein, in data set [3], the % AA Homodimer (incorrect assembly) was determined as 0%. Further, in data set [7], the % AB (2x LC1) (incorrect assembly) is 9.2%. For the same protein, the % AB (2x LC2) (incorrect assembly) in data set [8] was found to be 0%.

B4: pertuzumab HC_20.8.26_A + pertuzumab LC (IgG1) (protein)
chain 1: EVQLVESGGGLVQPGGSLRLSCAASGFTFTDYTMDWVRKAPGKGLEWVADVNPNSGGSIYNQEFKGRFTLSVDRSKNTLYLQMNSLRAEDTAVYYCARNLGPSFYFDYWGQGTLVTVSSASTKGPSVFPLAPSSKSTSGGTAALGCLVKDYFPEPVTVSWNSGALTSGVATGPAVLQSSGLYSLSSVVTVPSSSLGTQTYICNVNHKPSNTKVDKKVEPKSCDKTHTCPPCPAPELLGGPSVFLFPPKPKDTLMISRTPEVTCVVVDVSHEDPEVKFNWYVDGVEVHNAKTKPREEQYQSTYRVVSVLTVLHQDWLNGKEYKCKVSNKALPAPIEKTISKAKGQPREPQVSTLPPSREEMTKNQVSLMCLVYGFYPSDIAVEWESNGQPENNYKTTPPVLDSDGSFFLYSVLTVDKSRWQQGNVFSCSVMHEALHNHYTQKSLSLSPGK
chain 2: RIQMTQSPSSLSASVGDRVTITCKASQDVSIGVAWYQDKPGKAPKLLIYSASYRYTGVPSRFSGSGSGTDFTLTISSLQPEDFATYYCQQYYIYPYTFGQGTKVEIKGQPKAAPSVTLFPPSSEELQANKATLVCYISDFYPGAVTVAWKADSSPVKAGVETTTPSKQSNNKYAAWSYLSLTPEQWKSHRSYSCQVTHEGSTVEKTVAPTEC
On to B4, for which the % AB (LC1/LC2) (correct IgG BsAb assembly) in data set [9] was determined as 95.2%; in data set [10], 96.9%; in [11], 96.9%; in data set [12], 97.6%; in [13], 89.6%; in data set [14], 90.3%. The % AB (2x LC1) (incorrect assembly) was 0% in [15]; 0% in data set [16]; 0% in data set [17]; 0% in data set [18]; 7.5% in [19]; 9.7% in data set [20]. Besides, the % AB (2x LC2) (incorrect assembly) in data set [21], in data set [22], in data set [23], in [24], in data set [25] and in [26] was 0% throughout.
